Results from patent publication US6559124B1, “Use of prosaposin and peptides obtained therefrom for treatment of neural degeneration” (Myelos Corporation, priority 1993, dated 2003).
“And” between values parts separate entries of the source, which are not always exact repeats. Equal entries are not always repeated. Where no end group is shown, it is not given here.

Tests used:
[1] = tested on: NS20Y neuroblastoma cells; assay: Neurite outgrowth of NS20Y neuroblastoma cells; type: cell-based; conditions: for % Neurites after 24 hours: peptide added at 5 μg/ml, None = 18%
Procedure: NS20Y neuroblastoma cells were grown in Dulbecco's Modified Eagle Medium (DMEM) containing 10% fetal calf serum (FCS) and 1 mM sodium pyruvate. Cells were removed with trypsin and plated in 30 mm petri dishes onto glass coverslips. After 20-24 hours the medium was replaced with DMEM containing 0.5% fetal calf serum plus effector proteins. Cells were cultured for another 24 hours, washed with phosphate buffered saline (PBS) and fixed with Bouin's solution (saturated aqueous picric acid/formalin/acetic acid 15:5:1) for 30 minutes. Fixative was removed with PBS and neurite outgrowth was scored under a phase contrast microscope. […] At least 200 cells were scored in different portions of each dish to determine the percentage of neurite bearing cells and assays were performed in duplicate.

[2] = tested on: NS20Y proteins; assay: Incorporation of 32P into NS20Y proteins; type: cell-based; conditions: NS20Y cells; effector proteins 0.5-1.0 μg/ml, 10-15 minutes; versus controls or saposins A, B or D
Procedure: NS20Y cells were incubated in phosphate-free Hanks' balanced salt solution containing 2.5 μg/ml actinomycin D and 80-100 μCi/ml carrier-free [^32P]-orthophosphate (New England Nuclear) and effector proteins (0.5-1.0 μg/ml) and incubated for 10-15 minutes at room temperature. Cells were solubilized in SDS-PAGE sample buffer, analyzed by SDS-PAGE and autoradiographed.

[3] = design: species or system rats; conditions: rat, in vivo
Procedure: An 18-mer peptide consisting of amino acids 12-29 of saposin C with a tyrosine substituted for valine at position 12 was chemically synthesized on an Applied Biosystems Model 430 peptide synthesizer. The peptide was then radioiodinated by the lactoperoxidase method and 20×10^6 cpm were injected into the auricles of rats. The animals were sacrificed after one hour and 24 hours and the hearts were perfused with isotonic saline in order to remove the blood from the brain. The brain was then counted in a gamma counter in order to determine the percentage of peptide uptake. In addition, in the 24 hour experiment the brain was homogenized and separated into a capillary rich fraction (pellet) and a parenchymal brain fraction (supernatant) after dextran centrifugation (Triguero et al., (1990) J. Neurochem., 54: 1882-1888). This method allows for the discrimination between radiolabelled peptide within blood vessels and that within the brain. In the 24 hour experiment, 0.017% of the injected peptide was detected in whole brain, 75% of the label was in the parenchymal fraction and 25% was in the capillary fraction. At 1 hour 0.03% of the injected dose was present in whole brain.

[4] = tested on: mouse cerebellar explants; assay: Neurite outgrowth and myelination in newborn mouse cerebellar explants; type: cell-based; conditions: prosaposin 5 μg/ml, saposins 10 μg/ml; for cells with long projections at the periphery of the explant: day 15
Procedure: Newborn mouse cerebellar explants were prepared according to Satomi (Zool. Sci. 9, 127-137 (1992)). Neurite outgrowth and myelination were observed over 22 days in culture, during the period when the newborn mouse cerebellum normally undergoes neuronal differentiation and myelination begins. Prosaposin (5 μg/ml) and saposins A, B and C (10 μg/ml) were added on the second day after preparation of the explants (three control and three treated explants) and outgrowth of neurites and myelination were assessed under a bright field microscope with a video camera.

[5] = tested on: PC12M pheochromocytoma cells; assay: Neurite outgrowth from NGF-responsive PC12M cells; type: cell-based; conditions: high concentrations (2 mg/ml)
Description: Since nerve growth factor (NGF) acts on a variety of cell types, we wanted to determine whether it was involved in prosaposin-mediated outgrowth in neuroblastoma cells.

Molecule: 1-27: synthetic peptide from the human saposin C domain, residues 1-27 (SDVYCEVCEFLVKEVTKLIDNNKTEKE; Saposin-C; UniProt P07602 311-337, looked up, fragment)
- % Neurites after 24 hours [1]: 46%

Molecule: 41-82: carboxy terminal synthetic peptide, residues 41-82 of saposin C (KSLSEECQEVVDTYGSSILSILLEEVSPELVCSMLHLCSGTR; Saposin-C; UniProt P07602 351-392, looked up, fragment)
- neuritogenic activity (in words) [1]: inactive
- % Neurites after 24 hours [1]: 17%

Molecule: NGF: nerve growth factor, a neurotrophin [reference compound]
- neuritogenic activity (in words) [1]: no effect on neurite outgrowth
- augmentation of the prosaposin neurite outgrowth response ([1]; 5 μg/ml NGF (FIG. 1b)): did not augment the prosaposin response

Molecule: 1-40: amino terminal synthetic peptide, residues 1-40 of saposin C (SDVYCEVCEFLVKEVTKLIDNNKTEKEILDAFDKMCSKLP; Saposin-C; UniProt P07602 311-350, looked up, fragment)
- neuritogenic activity (in words) [1]: active
- % Neurites after 24 hours [1]: 42%

Molecule: 21-48: synthetic peptide from the human saposin C domain, residues 21-48 (NNKTEKEILDAFDKMCSKLPKSLSEECQ; Saposin-C; UniProt P07602 331-358, looked up, fragment)
- % Neurites after 24 hours [1]: 18%

Molecule: CEFLVKEVTKLIDNNKTEKEIL [8-29]
- phosphorylation of proteins of 148, 100, 80, 68, 50, 38 and 34 kDa (in words) [2]: stimulate phosphorylation
- neuritogenic activity (in words) [1]: neuritogenic activity
- extent of neurite outgrowth compared with prosaposin or saposin C ([1]; FIG. 1a, higher concentrations required for activity): greater than with prosaposin or saposin C
- % Neurites after 24 hours [1]: 56%

Molecule: 13-34: synthetic peptide from the human saposin C domain, residues 13-34 (KEVTKLIDNNKTEKEILDAFDK; Saposin-C; UniProt P07602 323-344, looked up, fragment)
- % Neurites after 24 hours [1]: 50%

Molecule: iodinated 18-mer: amino acids 12-29 of saposin C with tyrosine substituted for valine at position 12 (SEQ ID NO: 5), radioiodinated (YKEVTKLIDNNKTEKEIL; also: radioiodinated)
- crossing of the blood brain barrier (in words) [3]: crosses the blood brain barrier
- injected peptide detected in whole brain [3]: 0.017%
- label in the capillary fraction of brain [3]: 25%
- label in the parenchymal fraction of brain [3]: 75%
- neuritogenic activity (in words) [1]: neuritogenic activity

B1: Saposin A: one of four saposins generated from prosaposin; inactive in neurite outgrowth (protein, UniProt P07602 60-142, looked up)
Saposin-A: SLPCDICKDVVTAAGDMLKDNATEEEILVYLEKTCDWLPKPNMSASCKEIVDSYLPVILDIIKGEMSRPGEVCSALNLCESLQ
modifications: Saposin-A
- cells with long projections at the periphery of the explant [4]: less prominent
- neuritogenic activity (in words) [1]: inactive
- % Neurites after 24 hours [1]: 20%

B2: saposin B: one of four saposins generated from prosaposin (protein, UniProt P07602 195-273, looked up)
Saposin-B: GDVCQDCIQMVTDIQTAVRTNSTFVQALVEHVKEECDRLGPGMADICKNYISQYSEIAIQMMMHMQPKEICALVGFCDE
modifications: Saposin-B
notes: one of four saposins generated from prosaposin
- cells with long projections at the periphery of the explant [4]: less prominent

B3: Prosaposin: 70 kilodalton glycoprotein, precursor of saposins A, B, C and D; human sequence SEQ ID NO:2 (protein)
chain: MYALFLLASLLGAALAGPVLGLKECTRGSAVWCQNVKTASDCGAVKHCLQTVWNKPTVKSLPCDICKDVVTAAGDMLKDNATEEEILVYLEKTCDWLPKPNMSASCKEIVDSYLPVILDIIKGEMSRPGEVCSALNLCESLQKHLAELNHQKQLESNKIPELDMTEVVAPFMANIPLLLYPQDGPRSKPQPKDGDVCQDCIQMVTDIQTAVRTNSTFVQALVEHVKEECDRLGPGMADICKNYISQYSEIAIQMMMHMQPKEICALVGFCDEVKEMPMQTLVPAKVASKNVIPALDLVDPIKKHEVPAKSDVYCEVCEFLVKEVTKLIDNNKTEKEILDAFDKMCSKLPKSLSEECQEVVDTYGSSILSILLEEVSPELVCSMLHLCSGTRLPALTVHVTQPKDGGFCEVCKKLVGTLDRNLEKNSTKQEILAALEKGCSFLPDPYQKQCDQFVAEYEPVLIEILVEVMDPSFVCLKIGACPSAHKPLLGTEKCIWGPSYWCQNTETAAQCNAVEHCKRHVWN
- appearance of explant cultures on the eighth day ([4]; day 8): thinner and more spread out than control cultures
- cells with long projections at the periphery of the explant [4]: many cells with long projections
- stimulation of neurite outgrowth from PC12M cells [5]: failed to stimulate neurite outgrowth
- phosphorylation of proteins of 148, 100, 80, 68, 50, 38 and 34 kDa (in words) [2]: stimulate phosphorylation
- neuritogenic activity (in words) [1]: promoted reversible neurite outgrowth
- lowest concentration for activity (neurite outgrowth) ([1]; dose-response curve FIG. 1a): 1.4×10^−11 M and 10 ng/ml
- time at which retraction of neurite outgrowth was complete after removal ([1]; prosaposin removed): 36 h
